Patent US20240272145A1

Assays:
[1] = molecular target: citrullinated histone H2A and H4 present in pre-NETs (A23187-stimulated human neutrophils) (human) (UniProt P0C0S8); assay: flow cytometry on fixed and permeabilized leukocytes of A23187-stimulated whole blood; detection with goat-anti-human IgG-Alexa Fluor 488; negative control, same value as without antibody
[2] = molecular target: citrullinated histone H2A and H4 present in pre-NETs (A23187-stimulated human neutrophils) (human) (UniProt P0C0S8); assay: cell-based or functional assay
[3] = molecular target: citrullinated histone H2A and H4 present in pre-NETs (A23187-stimulated human neutrophils) (human) (UniProt P0C0S8); assay: flow cytometry on fixed and permeabilized leukocytes of A23187-stimulated whole blood; detection with goat-anti-human IgG-Alexa Fluor 488

| % pre-NETs (FITC+ of CD66b+ leukocytes, indicating antibody binding) [1] [%] | NET-inhibitory effect compared to No Ab at 210 min (live imaging fluorescence microscopy, A23187-stimulated neutrophils) [2] [%] | NETs after 210 min (percentage of neutrophils at t=0) [2] [%] | % pre-NETs (FITC+ of CD66b+ leukocytes, indicating antibody binding) [3] [%] | Substance |
| --- | --- | --- | --- | --- |
| 5 | – | – | – | isotype control antibody |
| – | 66 | 8 | 15 | CIT-013 (antibody) |
